The text below walks through data of article PMC12977500, “Mechanistic insights into SteAB regulation of cell wall hydrolase RipA in Mycobacterium tuberculosis” (mBio, 2026).

For data set [1], the target named is T1, MtRipACAT (catalytic domain of M. tuberculosis RipA, residues 261–472) (Mycobacterium tuberculosis, UniProt O53168 261-472).
T1 construct: also called MtRipA catalytic domain; NlpC/P60 catalytic domain; not shown: His6, N-terminal, cleaved; SUMO, N-terminal, cleaved
T1 sequence: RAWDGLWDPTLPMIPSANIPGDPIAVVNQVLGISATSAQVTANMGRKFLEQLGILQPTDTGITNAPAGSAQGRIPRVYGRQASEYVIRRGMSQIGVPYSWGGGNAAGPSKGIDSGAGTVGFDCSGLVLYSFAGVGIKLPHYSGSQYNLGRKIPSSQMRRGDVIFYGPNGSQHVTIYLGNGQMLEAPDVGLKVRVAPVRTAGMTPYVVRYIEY
Nature of the data set: BLI; biotinylated MtRipACC immobilised on streptavidin biosensors; Octet-Red384, 25°C; 25 mM HEPES pH 7.5, 150 mM NaCl, 5% glycerol, 1 mg/mL BSA, 0.05% Tween 20; MtSteB 200–3.125 μM or MtRipACAT 80–1.25 μM; steady-state signal, one-site binding model; apparent Kd. The settings on record: both partners purified. Background: In BLI a coated tip is dipped into the sample, and binding shifts an interference pattern.

Data set [2] concerns the molecule itself. Nature of the data set: SEC; analytical SEC, Superdex-200 3.2/300, 25 mM Hepes pH 8, 150 mM NaCl; calibrated with BioRad gel filtration standard.

B1: MtRipACC (coiled-coil domain of M. tuberculosis RipA, residues 40–240) (domain or fragment)
chain: DPQTDTIAALIADVAKANQRLQDLSDEVQAEQESVNKAMVDVETARDNAAAAEDDLEVSQRAVKDANAAIAAAQHRFDTFAAATYMNGPSVSYLSASSPDEIIATVTAAKTLSASSQAVMANLQRARTERVNTESAARLAKQKADKAAADAKASQDAAVAALTETRRKFDEQREEVQRLAAERDAAQARLQAARLVAWSSE
modifications: biotin (EZ-Link NHS-PEG4-Biotin, 20 molar excess) in the BLI assays only
notes: Biotinylated and immobilised on streptavidin sensors for BLI; not biotinylated in the crystal of the complex; also called RipA coiled-coil domain; CC domain of RipA; not shown: His6, N-terminal, cleaved; SUMO, N-terminal, cleaved
In the case of B1, the Kd in data set [1] worked out at 6.8 ± 1.4 µM.

B2: CgSteBΔTM (soluble SteB of Corynebacterium glutamicum) (domain or fragment)
chain: APNLPENIDPNAPTSAELVEAETLAEVNAVQADQADSIIDHIVEDVVAGTLTDRPVLVMRTADAEESDVADVSWLLQQAGAINAGSITLEENFFSQDGADQLKSIVANTLPAGAQLSETQLDPGTHAGEALGAALLLNPETGEPLASTAERGLLLNVLRDNGYISYEDGTILPGQVIVMITGDSDGSGDGAFAAETQSLFARALDAQGSGVVVAGRIHTAADTGVIGRLRANPDAAENVSTIDSVNRTWGKMATVLSVREELAGRSGAFGSAASADAASPSLDGTAAAPAQ
notes: The cloning of this construct is not described here; source: E. coli BL21 (DE3), purified ("pure protein sample")
With B2, in data set [2], the stoichiometry N (in general, the number of molecules, sites or subunits per partner or assembly) amounted to 2.
